This note sets out measurements from patent US7405286B2, “Stars—A muscle-specific actin-binding protein” (The Board of Regents of the University of Texas System, priority 2002, dated 2008).

For assay [1], the system named is SM22 promoter. Kind of assay: SM22-luciferase reporter assay in transiently transfected COS cells. The class given is cell-based. From the text:
(§1) STARS Expression Plasmids. STARS expression constructs were generated using the pcDNA3.1 mammalian expression vector (Invitrogen) which was modified to contain an amino-terminal Myc-tag. Constitutively active RhoA (L63) and C3 transferase in Prk5 were generously provided by Dr. Alan Hall (University College, London, United Kingdom). The SM22-luciferase reporter 1343 bp promoter has been previously described (Li et al., 1995). The smooth muscle α actin-luciferase reporter contained the 4 kb promoter region ligated into the pBL3basic vector (Promega). The ANF reporter contained the 638 bp promoter region (a generous gift from Dr. Mona Nemer, Universite de Montreal, Montreal, Quebec, Canada). The 4× cfos reporter contained four tandem copies of the cfos CArG box with flanking sequences, as described (Chang et al., 2001). CMV-lacZ (Promega) was used as an internal control for transfection efficiency.
(§2) Transient Transfections, Reporter Assays and Immunofluorescence Microscopy. COS cells were maintained in DMEM with 10% FBS. Eighteen hours after plating, the medium was changed to serum-free medium and transfections were performed at 50% confluency using FuGENE reagent-6 (Roche Molecular Biochemicals) following manufacturer's instructions. Each transfection used 0.15 μg of plasmid DNA for the reporter assays, and 0.5-1.0 μg immunohistochemistry. Cytochalasin D 2 μM (Sigma-Aldrich), and Y-27632 75 μM (Tocris) were added directly just after transfection. Latrunculin B 0.5 μM (dissolved in 10% ethanol, Calbiochem) was added 12 hr after transfection and 10% ethanol (final concentration 0.01%) was added to control wells. Cells were harvested 36 hr after transfection and their luciferase and β-galactosidase activity were measured.
(A reporter such as luciferase makes a cellular process visible.)

For assay [2], the system named is SM22 promoter. Kind of assay: SM22-luciferase reporter assay in F9 cells. Type of assay: cell-based. To be noted: low endogenous SRF expression.
Assay [3] has as its system α-smooth muscle actin promoter. Kind of assay: smooth muscle α actin-luciferase reporter assay in COS cells. Type of assay: cell-based.
Source text: as §1
(§3) Transient Transfections, Reporter Assays and Immunofluorescence Microscopy. COS cells were maintained in DMEM with 10% FBS. Eighteen hours after plating, the medium was changed to serum-free medium and transfections were performed at 50% confluency using FuGENE reagent-6 (Roche Molecular Biochemicals) following manufacturer's instructions. […] Cells were harvested 36 hr after transfection and their luciferase and β-galactosidase activity were measured.

The subject of assay [4] is E1b promoter linked to four tandem copies of the CArG box from the c-fos promoter. Nature of the assay: 4× cfos CArG box reporter assay in COS cells. Type of assay: cell-based.
Source text: as §1, §3

The test system of assay [5] is atrial natriuretic factor (ANF) promoter. Nature of the assay: ANF reporter assay in COS cells. Type of assay: cell-based.
Source text: as §1, §3

The next assay has as its system cytomegalovirus promoter. Kind of assay: cytomegalovirus promoter reporter assay. Type of assay: cell-based. To be noted: data not shown.
Source text: as §1, §3

In the next assay the test system is F-actin. Nature of the assay: Immunofluorescence / Phalloidin-TRITC staining of transfected COS cells. As to conditions: transfected COS cells, Myc-tagged proteins. Type of assay: cell-based. On the procedure:
as §2
For measuring immunofluorescence, cells were rinsed with PBS and fixed in 4% paraformaldehyde for 10 min on ice. After rinsing with PBS, COS cells were incubated in 0.1% Triton X-100 in PBS for 5 min on ice. For rat neonatal cardiomyocytes, 1% Triton X-100 in PBS was used. Cells were blocked for 20 min at room temperature in 0.5% BSA in PBS for COS cells and in 1% BSA plus 3% goat serum in PBS for rat cardiomyocytes. Then, cells were incubated with first antibody diluted in 0.5% BSA in PBS for 30-60 min at room temperature or overnight at 4° C. Anti c-myc monoclonal antibody 9E10 (Santa Cruz) was used at a 1:200 dilution. Other antibodies were anti α-actinin monoclonal antibody (1:400; Sigma-Aldrich), α-tubulin antibody (1:2000; Sigma-Aldrich) and anti-vimentin antibody (1:500; Sigma-Aldrich). Secondary antibodies were anti mouse/rabbit IgG FITC or Texas red (Vector) used at a 1:200 dilution incubated with or without Phalloidin-TRITC (1:500; Sigma Aldrich).

The subject of a further assay is actin. Nature of the assay: Co-immunoprecipitation of Myc-tagged proteins with actin in COS cells. To be noted: anti-Myc immunoprecipitation, anti-actin Western blot. Type of assay: binding. On the procedure: Western Blot and Co-immunoprecipitation Assay. Immunoprecipitation and western blot analysis was performed as described previously (Lu et al., 2000). For immunoprecipitation, cells were incubated with 1 μg anti c-myc polyclonal antibody A14 (Santa Cruz). Western blots were performed with anti-actin monoclonal antibody C4 (1:100; Roche Molecular Biochemicals) or anti c-myc monoclonal antibody 9E10 (1:1000; Santa Cruse) followed by incubation with secondary antibody HRP-conjugated anti mouse-IgG (Santa Cruse, Vector). To detect signals, blots were incubated with ECL (Santa Cruz) for 1 min, and exposed to film (Eastman Kodak Co).
(In general: In western blotting, separated proteins are transferred to a membrane and probed.)

“Also recorded” adds a separate entry of the source.

B1: STARS: novel 375-amino acid muscle-specific actin-binding protein, expressed from a Myc-tagged expression vector (protein, UniProt Q8BUZ1 1-375, looked up)
Actin-binding Rho-activating …: MAPGEREREAGPAKSALRKVRTATLVINLARGWQQWANENSTKQAQEPAGWLPGATHDLPNAPKEAGPYQHAPKTLSPKPDRDGEGQHSEEATEVSHIKRKEVTRTVVSKAYERGGDVNYLSHRYENDGGVSEAIQPENDIDRILLSHDSPTRRRKCTNLVSELTKGWKVMEQEEPTWKSDSVDTEDSGYGGDMEERPEQDAAPVAPARIKRPLLSQANRYSETLNCKAHRKYSQVDNLKGRWQQWADEHVQSQKLNPFSDEFDYDLAMSTRLHKGDEGYGRPKEGSKTAERAKRAEEHIYREIMELCFVIRTMARHRRDGKIQVTFGELFDRYVRISDKVVGILMRARKHGLVHFEGEMLWQGRDDHVVITLLE
modifications: Myc tag
In the case of B1, the “activation of SM22-luciferase / SRF transcription, in words” value with SM22 promoter [1] (COS cells, STARS and deletion mutants) is recorded as “activate SRF transcription”. Besides, the “activation of the SM22 promoter” value in the assay on SM22 promoter [1] (COS cells, STARS or RhoA (L63) expression vector alone) was “comparable levels”. Moreover, the “increase of SM22 promoter activity by STARS” value with SM22 promoter [1] (COS cells, in the presence of CD (2 μM)) was found to be 18 fold. Besides, the “responsiveness of SM22 promoter with mutated CArG boxes” value in the assay on SM22 promoter [1] (COS cells, mutSM22 reporter) is “abolished responsiveness”. Also, the “stimulation of expression of SM22 luciferase reporter” value in the assay with SM22 promoter [1] (transiently transfected COS cells, STARS expression vector) is on record as 40 fold. Further, the “effect on the SM22 promoter” value in the assay with SM22 promoter [2] is given as “minimal effect”. The “stimulation of α-smooth muscle actin promoter” value in assay [3] is recorded as “weakly stimulated”. In addition, the “activation of E1b promoter with four c-fos CArG boxes” value in assay [4] is “activated”. Moreover, in assay [5], the “stimulation of ANF promoter” value was “did not stimulate; also recorded: could not activate”. In addition, the “activation of cytomegalovirus promoter” value in the assay with cytomegalovirus promoter is “did not activate”. Besides, the “association with F-actin / actin stress fibers” value in the assay on F-actin is on record as “strongly colocalized with F-actin”; with F-actin (listed as STARS (wt)), “strongly associates with F-actin”. In addition, the “bundling of actin stress fibers” value in the assay on F-actin was “induced stress fiber formation and bundling”; with F-actin (listed as STARS (wt)), “induces extremely thick bundles”; with F-actin (listed as Wild type STARS) it was “induce actin bundles”. Further, the co-immunoprecipitation with actin entry in the assay with actin is recorded as “co-immunoprecipitated with actin”.
